A short description of the data set: amyloid nucleation score (Sup35N fusion, yeast selection) (log enrichment); library NNK2; higher = more nucleation; inactive = no reads after selection. The gist of the method: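 Growth for 7 days at 30°C on medium lacking adenine and uracil followed a 24-hour induction with 100 μM copper sulfate of psi-negative yeast expressing peptides of 20 random codons fused to Sup35N. Input and output plasmid inserts were sequenced with Illumina, and sequences with under 100 input reads were excluded. Nucleation score is the DiMSum log enrichment of output over input reads, centred on the mode score of non-aggregating sequences.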

± gives the uncertainty stated by the source.

As for WLMCMPILRSCWMSSG, the amyloid nucleation score was found to be 0.749 ± 0.22. As for FVFIYYIVLQHATANHSMQA, the amyloid nucleation score is 4.921 ± 0.044.

In turn, SDCGHAEVVCAGNHGGTSYP displayed an amyloid nucleation score of 0.326 ± 0.27. To CPFESRIAST belongs 0.132 ± 0.26; to DAMFFKCRMYRAVGRFFREG, 0.02 ± 0.28. To EVSQGLDSILYLWYDEWDSA belongs -0.608 ± 0.31. To EVELALGGSELGGVVSWLM belongs 1.77 ± 0.27. In turn, SVYANILFNKACMRFNVVNG registered an amyloid nucleation score of 0.23 ± 0.21. As for MSYCNT, the amyloid nucleation score turned out to be 1.77 ± 0.11. Regarding ISPEYVSTALLTECTWRVLR, the amyloid nucleation score was 0.215 ± 0.46. Substance LDIITGLSSISGTHIFGSSP returned an amyloid nucleation score of -0.627 ± 0.78.

The substance APNMKSNLYFPEVRLNEGSR came in with an amyloid nucleation score of 0.714 ± 0.53. In turn, CEFLMLFREFLDW returned an amyloid nucleation score of 4.59 ± 0.055. As for VFSLCGIYMRGHYSYWCYNK, the amyloid nucleation score entry was “inactive”. To TNCSPVVPSCD belongs 0.224 ± 0.57. In the case of RDMVTVVCTWEKWCCRFPDL, the amyloid nucleation score came to 0.063 ± 0.21. RGEHRERCGDIGRYGMGRRA registered an amyloid nucleation score of 1.27 ± 0.14. TWRFYTFLFEVFRRSEILKR gave an amyloid nucleation score of -0.97 ± 1.1. Consider STVTVGHNSHVCAFIF, for which the amyloid nucleation score was -0.326 ± 0.54. To QSVYFILNNFKWFPGSTGM belongs 7.062 ± 0.048; to DSGRCFSFKWFCYFQHHHEV, 2.18 ± 0.17. KDDSQLVLRDRPSRLWRLKE displayed an amyloid nucleation score of 0.804 ± 0.53. To NNSYIRLS belongs -0.883 ± 0.45; to EYVVSLHVFRLHIKLKIFRV, -0.09 ± 0.65; to SVLQAYFRTWSQWIRYTCAG, -0.141 ± 0.31. To GICKALARYYFSIYDWQVTE belongs 0.049 ± 1.1; to PFLSLAVFVTQAVVEHCCRC, 7.48 ± 0.085; to CDISRGLILYTHGLLFWTIR, “inactive”. The substance YIPCDKANRSFENC yielded an amyloid nucleation score of 1.19 ± 0.35. The substance RLCWWLVWS gave an amyloid nucleation score of 0.166 ± 0.76. RSQGLWMHAGPSFSVGYPFG returned an amyloid nucleation score of 3.9 ± 0.085.

Regarding VYYVWRNCLSDCLYYILTYF, the amyloid nucleation score is -2.05 ± 0.78.

Substance INIMARIWLQSVWLSVGRKS yielded an amyloid nucleation score of 0.097 ± 0.79. For the substance NISGATMEVVIYHDAVCESN, the amyloid nucleation score is -0.361 ± 0.63.

As for HCFALGR, the amyloid nucleation score was 0.088 ± 0.21. Consider TTALGRFMFDLCNDDWYSLV, for which the amyloid nucleation score entry is “inactive”.

Substance VNREYLLAVTVILQNVKTEE had an amyloid nucleation score of 8.609 ± 0.036. In the case of NIIACMYKLEDSGRQFSMLE, the amyloid nucleation score stood at 5.214 ± 0.046. On to VCFYPECVWQSILVLDFHVG, for which the amyloid nucleation score came out at 3.42 ± 0.079. As for ILYMTDKLDQSSCLGLMSSH, the amyloid nucleation score is -1.81 ± 0.78.

Consider FTIIGAAIKRVVVLTVSPYY, for which the amyloid nucleation score result is “inactive”. The substance WHGVDVIVRLMVAHPLGRTS gave an amyloid nucleation score of 4.36 ± 0.11. On to RYAQGRRWSYRLNRCLVGRC, for which the amyloid nucleation score turned out to be 1.81 ± 0.27. Consider TFRRTVNGNMRGQMPTNWAF, for which the amyloid nucleation score was found to be 0.537 ± 0.22. Turning to VGVYICFILGH, the amyloid nucleation score was 3.56 ± 0.14. SIFFARLVVEKSMIQLG: the amyloid nucleation score was found to be 0.21 ± 0.41. The substance VRLFLPHIYKMSLRDGGFEP came in with an amyloid nucleation score of -0.349 ± 0.63. Turning to CSVWWLWSLRM, the amyloid nucleation score is 1.13 ± 0.43.

For LWRGRIFLICFRSRDSNMCL, the amyloid nucleation score result was “inactive”. In turn, DNGCELPFLFFMFASTVKWS returned an amyloid nucleation score of -0.78 ± 1.1. For IYFMFVVYDSIHQE, the amyloid nucleation score was 1.32 ± 0.2. On to HMYVGHGLNVFAYISMLGVY, for which the amyloid nucleation score result was “inactive”.

ALNSPFMLQFLDWL gave an amyloid nucleation score of 0.11 ± 0.76. HHFNCCTGNFYIYKLDDSLI yielded an amyloid nucleation score of 5.485 ± 0.048.

As for RFNCHFIWNIRPEFRMNNDK, the amyloid nucleation score stood at 5.61 ± 0.057.

SLFTYGVISDHMGNMVPWND gave an amyloid nucleation score of -0.352 ± 1.1. TRMNSVYKVEIRRLVKMVSW came in with an amyloid nucleation score of 0.242 ± 0.21. Take SYDLPPFI: the amyloid nucleation score turned out to be 2.57 ± 0.11. To DMSIRRRI belongs -0.419 ± 0.32; to FYLYFIYGSVCSLSRFNPIR, 1.53 ± 0.1; to ANAAV, 1.12 ± 0.61. Regarding VHSLFVNIRMLCTDGFASTG, the amyloid nucleation score turned out to be 4.479 ± 0.038.

With ICWPSLLYAPGTVKMSTERV, the amyloid nucleation score was 0.706 ± 0.6. To SVDIHGTFWHILYSIAPDQV belongs 1.75 ± 0.23; to RFSCAEYVPVMT, 0.298 ± 0.56; to VIWYLRMVSTCNERGVKGIE, “inactive”. Substance FSNTYHFCISNYMWLNEVLM displayed an amyloid nucleation score of 1.36 ± 0.19.

For NKRATALCNLHF, the amyloid nucleation score result was “inactive”. With VSSYCIRML, the amyloid nucleation score turned out to be 0.11 ± 0.76. HGDNFSEVATTFNCMMLLNV yielded an amyloid nucleation score of -0.243 ± 1.1.

TSPRRACWSIQSDDWFGFEW returned an amyloid nucleation score of 1.33 ± 0.38.

For the substance WCLMQSFDGLSDME, the amyloid nucleation score came out at 0.561 ± 0.62. DCFFFKSWVSLGKIMLSTFS yielded an amyloid nucleation score of -0.997 ± 1.1. PITLTRASALLCKYYAFWTF yielded an amyloid nucleation score of 1.14 ± 0.37. As for EPLVKYPEYSFPSMVCMPSI, the amyloid nucleation score is -0.478 ± 0.64. To DYGEGLPNSMCCLVSFQ belongs 0.057 ± 1.1; to KIVVSFWLLPCFGKLFFPSV, -0.618 ± 0.76; to FDTASTVDSVRIRKTKSSQ, “inactive”.

In turn, KISCKKNWGAYVPF yielded an amyloid nucleation score of -0.594 ± 1.1. SLYLRSRSRISFMGVGQKEL: the amyloid nucleation score was found to be 3.28 ± 0.11. Substance INISCLKVGALSKGTRLFR displayed an amyloid nucleation score of 2.14 ± 0.068. In the case of SANHMKTDA, the amyloid nucleation score came out at 0.436 ± 0.8. Substance GRFDSRAFTDDMTKIPMYYL came in with an amyloid nucleation score of 0.045 ± 0.36. Substance NDSFPRDNFVESWQACEILM came in with an amyloid nucleation score of -0.78 ± 0.44. As for TGDCC, the amyloid nucleation score is 0.32 ± 0.33. The substance MLMSNFCF gave an amyloid nucleation score of -0.077 ± 0.74.

EHVVSSRRLYLQGDILLNSQ: the amyloid nucleation score entry was “inactive”. VLAILVTNLRLSSWFQSHMM returned an amyloid nucleation score of 0.837 ± 0.52. To YHSFCWANMIHRINSIVRLL belongs “inactive”; to WASIQVDRSLGCNIFWLLQ, 3.73 ± 0.11; to RRLAGSTAEKMYMF, “inactive”.

MIWGVT displayed an amyloid nucleation score of 1.01 ± 0.4. Take FTESCQCS: the amyloid nucleation score was -0.08 ± 0.31. Substance ASTSLMVN showed an amyloid nucleation score of 0.052 ± 0.46. NYSVWVIPVFMDEHIVLFMY returned an amyloid nucleation score of 5.8 ± 0.071. Turning to RLRQMCFKRNSVKLLLWNRF, the amyloid nucleation score was determined as 0.409 ± 0.8.

Substance NFHGSASNCDAIVYANFTMH showed an amyloid nucleation score of 4.61 ± 0.086. As to VFSCYSVQHRRLSWMSCD, the amyloid nucleation score was -0.385 ± 0.41. Substance PVKRQGSSAANVPVVW came in with an amyloid nucleation score of 0.444 ± 0.44. In turn, AMNVDIN displayed an amyloid nucleation score of -0.641 ± 0.24. Take QSQSSNCYDFIRTNDRKSIC: the amyloid nucleation score entry was “inactive”. As to DILGFCLSCMLRVGLFTWGR, the amyloid nucleation score entry is “inactive”.

Regarding WGCNSNELSCRLYVVNYSGW, the amyloid nucleation score is -0.251 ± 0.56.

Regarding FFVDMSYPGSWNICYLTRFC, the amyloid nucleation score result is “inactive”. Turning to DVVNVSYGPVITFMSVFRVS, the amyloid nucleation score was 7.556 ± 0.051. Consider PVLFYSLYIVNVNTLYMSSG, for which the amyloid nucleation score worked out at 7.857 ± 0.051. To CIEDRVCLDS belongs 8.276 ± 0.041. On to ILWPLHVWYVICYRSNMWSY, for which the amyloid nucleation score was found to be 5.27 ± 0.077. Consider KVVCLMVISCCLPLAPHRGW, for which the amyloid nucleation score came to 3.53 ± 0.11. As to CQRTTGALTSGWKPDDIGSV, the amyloid nucleation score stood at 0.192 ± 0.46. To RVQVPLGRAGTRISRSGKIW belongs 0.805 ± 0.43; to MAHWSSSNSTVVLGCLAWML, 6.17 ± 0.081. Regarding FECKCKVYTPAWGCHQYLIL, the amyloid nucleation score result is “inactive”. Take CMWGVDQPCLTTLTEAVLKP: the amyloid nucleation score is 1.96 ± 0.12. DDWVSGEEFGRSRNLNHFPD displayed an amyloid nucleation score of -1.56 ± 0.48. Turning to WIYSFTMFATWTNVT, the amyloid nucleation score is 0.092 ± 0.79. The substance KTLRCQRMVGYWGIRVDLGR gave an amyloid nucleation score of 1.31 ± 0.42. Take VLEKRFIRL: the amyloid nucleation score is -0.785 ± 0.46. To WCRAWGDFIMVKSLGLKCIA belongs -0.1 ± 0.49. As to DLYMNEASTALGLGRGFLWG, the amyloid nucleation score was -0.553 ± 1.1. To HTSMWFL belongs -0.145 ± 1.1.

In turn, SRYIM came in with an amyloid nucleation score of -1.06 ± 1.1. On to CILRGLVASSNNSGSIGAMK, for which the amyloid nucleation score worked out at 0.361 ± 0.23. Regarding VMCFEYYVYYDYDYTCTFNY, the amyloid nucleation score came to 0.842 ± 0.12.

In the case of GLWLGWNLYVNKFV, the amyloid nucleation score worked out at 0.385 ± 0.33.

For the substance GNKCLSWVES, the amyloid nucleation score was -0.12 ± 0.23. As to HIMSIDVPSNLSLQFIMVGY, the amyloid nucleation score was 0.306 ± 0.64.

With NMKSWGSVV, the amyloid nucleation score was -0.145 ± 0.79. As to TGALHWVNAYVLFRKVCKGM, the amyloid nucleation score came to 0.297 ± 0.26.

The substance MTLMKDCDMNISHSARAKAS had an amyloid nucleation score of 0.255 ± 0.18. As for VIFVRYWGVDYHLADLVIN, the amyloid nucleation score is -0.563 ± 0.55. Substance VLNDFFWEHLPMGHNVGLTL returned an amyloid nucleation score of -0.252 ± 0.55. As for LRRTSVVIGRVRSSRLCGLR, the amyloid nucleation score was 9.336 ± 0.054. On to LYMYKNAKVLVSHLYYWYNY, for which the amyloid nucleation score result is “inactive”. VFLACNDCLCVWLSVEVTSE: the amyloid nucleation score result was “inactive”. In the case of NVVTGVASILWGQDHNKSLV, the amyloid nucleation score came to 0.641 ± 0.74. To IWSRLVVLRGRAGSDSSKNS belongs -0.044 ± 0.5.
